In patent publication US20030145347:

Key:
[1] = tested on: rice thioredoxin with S-tag (recombinant, expressed in E. coli from pNOV4113)
[2] = tested on: soybean thioredoxin prep without S-tag (recombinant, expressed in E. coli from pNOV4112, S-Tag removed by thrombin cleavage)
[3] = tested on: soybean thioredoxin with S-tag (recombinant, expressed in E. coli from pNOV4112)

Row | Substance | reduction of thioredoxin in vitro [1] | reduction of thioredoxin, DTNB assay [1] | reduction of thioredoxin, DTNB assay [2] | reduction of thioredoxin, DTNB assay [3] | OD 650 nm (after 31 minutes), insulin reduction assay, thioredoxin 4 ug as printed in the row (insulin) [OD 650 nm] | OD 650 nm (after 31 minutes), insulin reduction assay, thioredoxin 5 ug as printed in the row (insulin) [OD 650 nm] | OD 650 nm (after 31 minutes), insulin reduction assay, thioredoxin 6 ug as printed in the row (insulin) [OD 650 nm] | OD 650 nm (after 31 minutes), insulin reduction assay, thioredoxin 7 ug as printed in the row (insulin) [OD 650 nm] | Rate of Precipitation (change of A650/min), insulin reduction assay, thioredoxin 4 ug as printed in the row (insulin) [A650/min] | Rate of Precipitation (change of A650/min), insulin reduction assay, thioredoxin 5 ug as printed in the row (insulin) [A650/min] | Rate of Precipitation (change of A650/min), insulin reduction assay, thioredoxin 6 ug as printed in the row (insulin) [A650/min] | Rate of Precipitation (change of A650/min), insulin reduction assay, thioredoxin 7 ug as printed in the row (insulin) [A650/min]
1 | Arabidopsis NADPH thioredoxin reductase without S-tag (recombinant, expressed in E. coli from pNOV4115) | Arabidopsis thioredoxin reductase is found to be active in reducing rice thioredoxin in vitro | can also reduce rice thioredoxin | can reduce soybean thioredoxin with and without the S-tag | can reduce soybean thioredoxin with and without the S-tag |  |  |  |  |  |  |  | 
2 | soybean thioredoxin prep without S-tag (recombinant, expressed in E. coli from pNOV4112, S-Tag removed by thrombin cleavage) |  |  |  |  | 0.001 | 0.0077 | 0.0084 | 0.0117 | 3.2e-05 | 0.00025 | 0.00027 | 0.00038
